Laboratory results as given in patent US20160186156A1 (YEDA RESEARCH AND DEVELOPMENT, published 2016).

Molecular target: T1, primary hexavalent scaffold CohII-C-A-CBM-T-G-F
T1 chain: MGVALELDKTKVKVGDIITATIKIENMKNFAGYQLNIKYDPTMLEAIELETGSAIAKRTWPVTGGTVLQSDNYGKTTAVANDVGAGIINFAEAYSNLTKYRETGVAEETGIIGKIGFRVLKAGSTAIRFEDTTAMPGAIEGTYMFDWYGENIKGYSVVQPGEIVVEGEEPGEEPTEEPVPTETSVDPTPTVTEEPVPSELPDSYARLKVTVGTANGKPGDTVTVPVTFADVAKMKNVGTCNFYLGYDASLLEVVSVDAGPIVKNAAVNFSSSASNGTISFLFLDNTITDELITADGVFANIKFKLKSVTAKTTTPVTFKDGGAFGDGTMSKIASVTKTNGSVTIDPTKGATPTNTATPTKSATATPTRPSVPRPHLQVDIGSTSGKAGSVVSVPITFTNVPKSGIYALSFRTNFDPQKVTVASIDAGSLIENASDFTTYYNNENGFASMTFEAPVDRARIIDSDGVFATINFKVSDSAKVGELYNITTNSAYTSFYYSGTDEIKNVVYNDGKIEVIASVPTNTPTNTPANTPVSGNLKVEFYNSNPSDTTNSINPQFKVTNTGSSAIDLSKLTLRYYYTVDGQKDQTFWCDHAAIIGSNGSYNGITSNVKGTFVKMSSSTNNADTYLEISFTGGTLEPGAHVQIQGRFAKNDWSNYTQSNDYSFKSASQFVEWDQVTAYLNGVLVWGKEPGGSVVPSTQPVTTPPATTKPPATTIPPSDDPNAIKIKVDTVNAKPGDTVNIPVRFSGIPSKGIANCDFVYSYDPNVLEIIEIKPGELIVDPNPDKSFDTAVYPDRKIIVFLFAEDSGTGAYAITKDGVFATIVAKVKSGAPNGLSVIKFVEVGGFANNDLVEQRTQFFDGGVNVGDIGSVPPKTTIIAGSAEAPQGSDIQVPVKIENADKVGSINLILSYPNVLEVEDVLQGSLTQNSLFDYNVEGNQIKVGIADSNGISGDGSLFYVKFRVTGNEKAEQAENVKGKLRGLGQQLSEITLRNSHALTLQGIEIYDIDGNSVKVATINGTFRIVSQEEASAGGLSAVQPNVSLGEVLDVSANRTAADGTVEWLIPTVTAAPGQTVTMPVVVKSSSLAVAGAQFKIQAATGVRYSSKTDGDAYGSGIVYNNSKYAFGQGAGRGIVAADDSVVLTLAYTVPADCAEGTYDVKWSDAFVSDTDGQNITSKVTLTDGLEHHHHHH
Assay: cell-based or functional assay

B1: adaptor scaffold CBM-A-B-T-DockII (other)
chain: MANTPVSGNLKVEFYNSNPSDTTNSINPQFKVTNTGSSAIDLSKLTLRYYYTVDGQKDQTFWCDHAAIIGSNGSYNGITSNVKGTFVKMSSSTNNADTYLEISFTGGTLEPGAHVQIQGRFAKNDWSNYTQSNDYSFKSASQFVEWDQVTAYLNGVLVWGKEPGGSVVPSTQPVTTPPATTKPPATTKPPATTIPPSGSDLQVDIGSTSGKAGSVVSVPITFTNVPKSGIYALSFRTNFDPQKVTVASIDAGSLIENASDFTTYYNNENGFASMTFEAPVDRARIIDSDGVFATINFKVSDSAKVGELYNITTNSAYTSFYYSGTDEIKNVVYNDGKIEVIASPTPTQSATPTVTPSATATPTQSATPTVTPSSPGNKMKIQIGDVKANQGDTVIVPITFNEVPVMGVNNCNFTLAYDKNIMEFISADAGDIVTLPMANYSYNMPSDGLVKFLYNDQAQGAMSIKEDGTFANVKFKIKQSAAFGKYSVGIKAIGSISALSNSKLIPIESIFKDGSITVTNTPTNTISVTPTNNSTPTNNSTPKPNPLSDGVVVEIGKVTGSVGTTVEIPVYFRGVPSKGIANCDFVFRYDPNVLEIIGIDPGDIIVDPNPTKSFDTAIYPDRKIIVFLFAEDSGTGAYAITKDGVFAKIRATVKSSAPGYITFDEVGGFADNDLVEQKVSFIDGGVNVGNATRSTNKPVIEGYKVSGYILPDFSFDATVAPLVKAGFKVEIVGTELYAVTDANGYFEITGVPANASGYTLKISRATYLDRVIANVVVTGDTSVSTSQAPIMMWVGDIVKDNSINLLDVAEVIRCFNATKGSANYVEELDINRNGAINMQDIMIVHKHFGATSSDYDAQLEHHHHHH
  wheat straw degradation, reducing sugars released after 48 hours incubation at 50 C (FIG. 5, Column 7 against Columns 4 and 6): ~2 fold
